{"source": "patent US20100209346A1", "test_in_all_cases": "dot blot; antigen dilution series 100-0.01 pmol on nitrocellulose", "key": {"[1]": {"molecular_target": "Aβ(1-42) fibril preparation of example 27 (human)"}, "[2]": {"molecular_target": "Aβ(1-42) oligomer B preparation of example 6b (oligomers of human amyloid β(1-42) protein with apparent molecular weights of 38 kDa and 48 kDa) (human)"}, "[3]": {"molecular_target": "HFIP-treated Aβ(1-42) monomer of example 1a (human)"}}}
{"substance": "monoclonal antibody 6E10 (Signet)", "values": [{"measurement": "detection limit (minimum amount of antigen visible)", "setting": "[1]", "value": 1, "unit": "pmol"}, {"measurement": "detection limit (minimum amount of antigen visible)", "setting": "[2]", "value": 0.1, "unit": "pmol"}, {"measurement": "detection limit (minimum amount of antigen visible)", "setting": "[3]", "value": 0.1, "unit": "pmol"}]}
